B1: TPR t1 (parent)
chain: GACCAAUCUGCCCUCAGAGCUCGAGAACAUCUUCGGAUGCAGAGGAGGCAGGCUUCGGUGGCGCGAUAGCGCCAACGUCCUCAACCUCCAAUGCAUCCCACCACAUGAUGAUGCCUGAAGAGCCUUGGUUUUUUG

Variants of: B1
Test: polymerase ribozyme fitness, log enrichment relative to wild type (log ratio); higher = more active; in vitro selection for triplet polymerase activity
Procedure, shortened: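 Only genotypes with ≥10 input reads and ≥1 read per output were kept after Illumina sequencing of input and output libraries. These libraries were PCR-built, transcribed mutants of each subunit of a heterodimeric triplet polymerase ribozyme, each put through one triplicate in vitro selection round with frozen incubation at −7 °C, gel excision of extended constructs, streptavidin-bead capture and RT-PCR. Fitness is a logarithmic ratio of genotype enrichment to wild-type enrichment, from inverse-variance-weighted replicate averages, with the logarithm in base 2.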

Variant | polymerase ribozyme fitness (log ratio)
GACCAAUCUGCCCUCAGAGCUCGAGAACAUCUUCGGAUGCAGAGGAGGCAGGCGUCGGUGGCGCGAUAGCGCCAACGACCUCAACCUCCAAUUCAUCCCACCACAUGAUGAUGCCUGAAGAGCCUUGGUUUUUUG | -4.13
GACCAAUCUGCCCUCAGAGCUCGAGAACAUCUUCGGAUGCAGAGGAGGCAGGCGUCGGUGGCGCGAUAGCUCCACCGUCCUCAACCUCCAAUGCAUCUCACCACAUGAUGAUGCCUGAAGAGCCCUGGUUUUUUG | -4.29
GACCAAUCUGCCCUCAGAGCUCGAGAACAUCUUCGGAUGCAGAGGAGGCAGGCGUCGGUGGCGCGAUAGCGCCAACGUCCUCAACCUCCAAUGCAUCCCACCACAUGAUGAUUCCUGAAGAGCCUUGGUUUUUUG | -3.26
GACCAAUCUGCCCUCAGAGCUCGAGAACAUCUUCGGAUGCAGAGGAGGCAGGCUACGGUGGCGCGAUAGCGCCAACGUCCUCAAGGUCCAAUGCAUCCCACCACAUGAUGAGGCCUGAAGAGCCUUGAUUUUUUG | -2.76
GACCAAUCUGCCCUCAGAGCUCGAGAACAUCUUCGGAUGCAGAGGAGGCAGGCUACGGUGGCGCGAUAGCGCCAACGUCCUCAAACUCCAAUGCAUCCCACCACAUGAUGAUGCGUGAAGAGCCUUGGUUUUUUG | -3.37
GACCAAUCUGCCCUCAGAGCUCGAGAACAUCUUCGGAUGCAGAGGAGGCAGGCGGCGGUCGCGCGAUAGCGCCAACGUCCUCAAUCUCCAAUGCAUCCCACCACAUGAUGAUGCCUGAAGAGCCUUGGUUUUUUG | -6.29
GACCAAUCUGCCCUCAGAGCUCGAGAACAUCUUCGGAUGCAGAGGAGGCAGGCGUCGGUGGCGCGAUAGCGCCAACGUCCUCAACCCCCAAUGCAUCCCACCACAUGAUGAUGCCUGAAGAGCCUUGGUUUUUUG | -0.0304
GACCAAUCUGCCCUCAGAGCUCGAGAACAUCUUCGGAUGCAGAGGAGGCAGGCGUCGGUGGCGCGAUAGCGCCAACGUCCUCAACCACCAAUGCAUCCCACCACAUGAUGAUGCCUGAAGAGCCUUGGUUUUUUG | -0.0841
GACCAAUCUGCCCUCAGAGCUCGAGAACAUCUUCGGAUGCAGAGGAGGCAGGCGUCGGUGGCGCGAUAUCGCCAACGUCCUCAACCUCCAAUGCAUCCCACCACAUGAUGAUGCCUGAAGCGCCUAGGUUUUUUG | -0.813
GACCAAUCUGCCCUCAGAGCUCGAGAACAUCUUCGGAUGCAGAGGAGGCAGGCUACGGCGGCGCGAUAGCGCCAACGUCCUCAACCUCCAAUGCAUCCCACCACAUGAUGAUGCCUGAAGAGCCUUGGUUUUUUU | -1.36
GACCAAUCUGCCCUCAGAGCUCGAGAACAUCUUCGGAUGCAGAGGAGGCAGGCUACGGUGUCGCGAUAGCGCCAACGUCCUCAAACUCCAAUGAAUCCCACCACAUGAUGAUGCCUGAAGAGCCUUGGUUUUUUG | -0.999
GACCAAUCUGCCCUCAGAGCUCGAGAACAUCUUCGGAUGCAGAGGAGGCAGGCUACGGUGGCGCGAUAGCGCUAACGUCCUCAACCUCCAAUGCAUCCCACCACAUGAUGAUGCCUGAAGAGCCUUGGUUUUUUG | 0.172
GACCAAUCUGCCCUCAGAGCUCGAGAACAUCUUCGGAUGCAGAGGAGGCAGGCGUCGGUGGCGCGAUAGCACCAACGUCCUCAACCUCCAAUGCAUCCCACCACAUGAUGAUGCCUGAAGAGCCUUGGUUUUUUG | -4.72
GACCAAUCUGCCCUCAGAGCUCGAGAACAUCUUCGGAUGCAGAGGAGGCAGGCGUCGGUGGCGCGAUAGCGCCAACGUCCUCAACCUCCAAUGCAUCCCACCACAUGAUGAUCCCUGAAGAGCCUCGGUUUUUUG | -3.09
GACCAAUCUGCCCUCAGAGCUCGAGAACAUCUUCGGAUGCAGAGGAGGCAGGCUACGGUGGCGCGAUAGCGCCGACGUCCUGAACCUCCAAUGCAUCCCACCACAUGAUGAUGCCUGAAGAGGCUUGGUUUUUUG | 1.26
GACCAAUCUGCCCUCAGAGCUCGAGAACAUCUUCGGAUGCAGAGGAGGCAGGCGUCGGUGGCGCGAUAGCGCCAACGUCCUCAACCUCCAAUGCAUCCCACCACAUGAUGAUGCCUGAAGAACCUUGCUUUUUUG | -2.84
GACCAAUCUGCCCUCAGAGCUCGAGAACAUCUUCGGAUGCAGAGGAGGCAGGCUACGGUGGCGCGAUAGCGCCAACGUCCUCAACCUCCAAUGCAUCCCACCACAUGAUGAUGCCUGAAGAGCGUUGGUUUUUUG | 1.88
GACCAAUCUGCCCUCAGAGCUCGAGAACAUCUUCGGAUGCAGAGGAGGCAGGCUACGGUGGCGCGAUAUCGCCAACGUCCUCAACCUCCAAUGCAUCCCACCACAUGAUGAUGCCUGAAGAGCCUUGGUUUUUUG | 0.503
GACCAAUCUGCCCUCAGAGCUCGAGAACAUCUUCGGAUGCAGAGGAGGCAGGCGUCGGUGGCGCGAUAGCGCCAACGUCCUCAACCUCCAAUGCAUCCCACCACAUGAUGAUGCCUGAAAAGCCUUGGUUUUUUG | -0.587
GACCAAUCUGCCCUCAGAGCUCGAGAACAUCUUCGGAUGCAGAGGAGGCAGGCUACGGUGGCGCGAUAACGCCAACGUCCUCAACCUCCAAUGAAUCCCACCACAUGAUGAUGCCUGAAGAGCCUUGGUUUUUUG | -4.1
GACCAAUCUGCCCUCAGAGCUCGAGAACAUCUUCGGAUGCAGAGGAGGCAGGCUACGGUGGCGCGAUAGCGCCAACCUCCUCAACCUCCAAUGCAUCCCACCAAAUGAUGAUGCCUGAAGAGCCUUGGUUUUUUG | -1.93

Variant | polymerase ribozyme fitness (log ratio)
GACCAAUCUGCCCUCAGAGCUCGAGAACAUCUUCGGAUGCAGAGGAGGCAGGCGGCGGUGGCGCGAUAGCGCAAACGUCCUCAACCUCCAAUGCAUCCCACGACAUGAUUAUGCCUGAACAGCCUUGGUUUUUUG | -7.7
GACCAAUCUGCCCUCAGAGCUCGAGAACAUCUUCGGAUGCAGAGGAGGCAGGCGUCGGCGGCGCGAUAGCGCCAACGUCCUCAACCUCCAAUGCAUCCCACCACAUGAUGAUGCCUGAAGAGCCUUGGUAUUUUG | -1.81
GACCAAUCUGCCCUCAGAGCUCGAGAACAUCUUCGGAUGCAGAGGAGGCAGGCUACGGUGGCGCGAUAGCGCCAACGUCCUCAACCUCCAAUGCAUCCCACCACAUGAUGAUGCCUAAAGAGCCUUGGUUUUUUG | -1.34
GACCAAUCUGCCCUCAGAGCUCGAGAACAUCUUCGGAUGCAGAGGAGGCAGGCUACGGUGGCGCGAUAGCGCCAACGUCCUCAACCUCCAAUGCAUCCCACCAAAUGAUGAUCCCUGAAGAUCCUUGGUUUUUUG | -3.73
GACCAAUCUGCCCUCAGAGCUCGAGAACAUCUUCGGAUGCAGAGGAGGCAGGCGUCGGUGGCGCGAUAUCGCCAACGUCCUCAACCUCCAAUGCAUCCCACCACAUGAUGAUGCCUGAAGAGCCUUGGUUUUUUG | -0.782
GACCAAUCUGCCCUCAGAGCUCGAGAACAUCUUCGGAUGCAGAGGAGGCAGGCGUCGGUGGCGCGAUACCGCCAACGUCCUCAACCUCCAAUGCAUCCCACCACAUGAUGAUGCCUGAAGAGCCUUGGUUUUUUG | -6.2
GACCAAUCUGCCCUCAGAGCUCGAGAACAUCUUCGGAUGCAGAGGAGGCAGGCUACGGUGGCGCGAUAGCGCCAACGUCCUCAACGUCCAAUGCAUCCCACCACAUGAUGAUGCCUGAAGAGCCUUGGUAUUUUG | -0.641
GACCAAUCUGCCCUCAGAGCUCGAGAACAUCUUCGGAUGCAGAGGAGGCAGGCUACGGUGGCCCGAUAGCGCCAACGUCCUCAACCUCCAAUGCAUCUCACCACAUGAUGAUUCCUGAAGAGCCUUGGUUUUUUG | -4.52
GACCAAUCUGCCCUCAGAGCUCGAGAACAUCUUCGGAUGCAGAGGAGGCAGGCUACGGUGGCACGAUAGCGCAAACGUCCUCAACCUCCAAUGCAUCCCACCACAUGAUGAUGCCUGAAGAGCCUUGGUUUUUUG | -1.05
GACCAAUCUGCCCUCAGAGCUCGAGAACAUCUUCGGAUGCAGAGGAGGCAGGCGUCGGAGGCGCGAUAGCGCCAACGUCUUCAACCUCCAAUGCAUCCCACCACAUGAUGAUGCCUGAAGAGACUUGGCUUUUUG | -1.82
GACCAAUCUGCCCUCAGAGCUCGAGAACAUCUUCGGAUGCAGAGGAGGCAGGCUACGGUGGCGCGAUAGCCCCAACGUCCUCAACCUCCAAUGCAUCCCACCACAUGAUGAUGCCUGAAGAGCCUUGGUUUUUUG | -1.29
GACCAAUCUGCCCUCAGAGCUCGAGAACAUCUUCGGAUGCAGAGGAGGCAGGCUACGGUGGCGCGGUAGCGCCAACGUCCUCAACCUCCAAUGCAUCCCAGCACAUGAUGAUGCCUGAAGAGCCUUGGUUUUUUG | -2.92
GACCAAUCUGCCCUCAGAGCUCGAGAACAUCUUCGGAUGCAGAGGAGGCAGGCUACGGUGGCGCGAUAGCGCCAACGUACUCAACCUCCAAUGCAUCCCACCACAUGAUGAUGCCUGAAGAGCCGUGGUUUUGUG | -4.8
GACCAAUCUGCCCUCAGAGCUCGAGAACAUCUUCGGAUGCAGAGGAGGCAGGCUACGGUGGCGCGAUAGCGCUAACGUCCUCAAACUCCAAUGCAUCCCACCACAUGAUGAUGCGUGAAGAGCCUUGGUUUUUUG | -3.38
GACCAAUCUGCCCUCAGAGCUCGAGAACAUCUUCGGAUGCAGAGGAGGCAGGCGUCGGUGGCGCGAUAGCGCCAACGUCCUCAACCCCCAAGGCAUCCCACCACAUGAUGAUGCCUGAAGAGCCUUGGUUUUUUG | -2.64
GACCAAUCUGCCCUCAGAGCUCGAGAACAUCUUCGGAUGCAGAGGAGGCAGGCUACGGUGGCGCGAUACCGCCAACGUCCUCAACCGCCAAUUCAUCCCACCACAUGAUGAUGCCUGAAGAGCCUUGGUUUUUUG | -1.37
GACCAAUCUGCCCUCAGAGCUCGAGAACAUCUUCGGAUGCAGAGGAGGCAGGCGGCGGUGGCGCGAUAGCGCUAACGUCCUCAACCUCCAAUGCAUCCCACGACAUGAUUAUGCCUGAACAGCCUUGGUUUUUUG | -6.74
GACCAAUCUGCCCUCAGAGCUCGAGAACAUCUUCGGAUGCAGAGGAGGCAGGCGUCGGUGGCGCGAUAGCGCCAACGUCCUCAACCUCCAAUUCCUCCCAACACAUGAUGAUGCCUGAAAAGCCUUGGUUUUUUG | -2.9
GACCAAUCUGCCCUCAGAGCUCGAGAACAUCUUCGGAUGCAGAGGAGGCAGGCGUCGGCGGCGCGAUAGCGCCAACGUCCUCAACCUCCAAUGCAUCCCACCACAUGAUGAUGCCUGAAGAGCCUUGGUUUUUUG | -1.85
GACCAAUCUGCCCUCAGAGCUCGAGAACAUCUUCGGAUGCAGAGGAGGCAGGCUACGGUGGCGCGAUAGCGCCAACGUCCUCAACCUACAAUGCAUCCCACCACAUGAUGAUGCCUGAAGAGCCUUGGUUUUUUG | 0.08
GACCAAUCUGCCCUCAGAGCUCGAGAACAUCUUCGGAUGCAGAGGAGGCAGGCGUCGGUGGCGCGAUAGCGCCAACGUCCUCAACCCCCAAUGCAUCCCACCACAUGAUGAUGCGUGAAGAGCCUUGGUUUUUUG | -1.72
